Results published in PMC12151379 (2025).
Numbering of substitutions follows the chain as printed. Names and notes keep the numbering of the source.

T1: RIM1_C2B R1236E (Rattus norvegicus)
T1 chain: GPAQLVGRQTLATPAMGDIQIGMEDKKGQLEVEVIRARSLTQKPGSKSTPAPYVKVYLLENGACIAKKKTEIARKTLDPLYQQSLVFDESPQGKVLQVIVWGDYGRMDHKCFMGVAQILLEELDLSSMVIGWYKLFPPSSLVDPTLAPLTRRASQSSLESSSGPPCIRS

T2: RIM1_C2B L1245Q (Rattus norvegicus)
T2 chain: T1 chain with E71R, L80Q

T3: RIM1_C2B K1240E (Rattus norvegicus)
T3 chain: T1 chain with E71R, K75E

T4: liprin-α2_CC2N A350S (human, UniProt O75334 300-404, A350S)
T4 sequence: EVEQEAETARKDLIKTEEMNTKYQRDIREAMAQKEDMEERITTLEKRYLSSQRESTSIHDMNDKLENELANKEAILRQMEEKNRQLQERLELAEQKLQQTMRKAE

T5: liprin-α2_CC2N E380R (human, UniProt O75334 300-404, E380R)
T5 sequence: T4 sequence with S51A, E81R

T6: liprin-α2_CC2 (residues 259–542) (human, UniProt O75334 259-542)
T6 chain: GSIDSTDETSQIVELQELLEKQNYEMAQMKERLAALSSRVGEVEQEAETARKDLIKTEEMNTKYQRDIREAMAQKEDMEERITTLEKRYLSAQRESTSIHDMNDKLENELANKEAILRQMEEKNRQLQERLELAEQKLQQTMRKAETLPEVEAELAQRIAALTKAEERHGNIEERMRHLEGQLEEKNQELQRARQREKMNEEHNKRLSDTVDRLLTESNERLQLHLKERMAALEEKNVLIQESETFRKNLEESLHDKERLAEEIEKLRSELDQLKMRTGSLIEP

B1: liprin-α2_CC2N (residues 300–404) (domain or fragment)
chain: T4 sequence with S51A
B2: liprin-α2_CC2N E379R (protein)
chain: T4 sequence with S51A, E80R
B3: liprin-α2_CC2N R383A (protein)
chain: T4 sequence with S51A, R84A
B4: RIM1_C2B (residues 1166–1334) (domain or fragment)
chain: T1 chain with E71R

How the values were obtained:
Assay in all cases: ITC
[1] = target: B4
RIM1_C2B R1236E = target: T1, RIM1_C2B R1236E
RIM1_C2B L1245Q = target: T2, RIM1_C2B L1245Q
RIM1_C2B K1240E = target: T3, RIM1_C2B K1240E
liprin-α2_CC2N A350S = target: T4, liprin-α2_CC2N A350S
liprin-α2_CC2N E380R = target: T5, liprin-α2_CC2N E380R
[2] = target: T6, liprin-α2_CC2 (residues 259–542)
[3] = target: B1

Binder: B1
- Kd [1]: 4 µM
- Kd (RIM1_C2B R1236E): 27 µM
- Kd (RIM1_C2B L1245Q): > 100 µM
- Kd (RIM1_C2B K1240E): 25 µM

Binder: B2
- Kd [1]: 23 µM

Binder: B3
- Kd [1]: 24 µM

Binder: B4
- Kd (liprin-α2_CC2N A350S): 5.7 µM
- Kd (liprin-α2_CC2N E380R): 8.2 µM
- Kd [2]: 5 µM
- Kd [3]: 4 µM
